Consider 41 sequences from the nanobody polyreactivity screen of Harvey et al. (2022).

A short description of this series: yeast display, Sf9 membrane polyspecificity reagent, FACS + sequencing; frameworks hold sequencing errors. An outline of the steps:
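In a synthetic yeast display library (Saccharomyces cerevisiae BJ5465), nanobody expression was induced with galactose for 36–48 hours. FACS gates were set low and high (top ~1%) using anti-HA fluorescence for expression and streptavidin fluorescence for binding of the Sf9 membrane reagent. Each polyreactivity label is drawn from the gate of origin.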
Turning to “QVQLVESGGGVVQAGGSLRLSCAASGSTFTVNGMGWYRQAPGKERELVAAIVGGDGSTYYADSVKGRFTISRDNAMNTVYLQMNSLKPEDTAVYYCAADPPGFTQYGYWGQGTQVTVSS”, the “polyreactivity (PSR sort gate)” value is on record as “low polyreactivity”. The value for “QVQLVESGGGVVQAGGSLRLSCAASGSTFYSYAMGWYRPAPGKERELVAAISWDGGRTYYADSVKGRFTISRDNAQNTVYLQMNSMKPEDTAVYYCAARKGELWFPQGGYNYSGQGTQVTVSS” was “low polyreactivity”. As to “QVQLVESGGGVVQAGGSLRLSCAASGSTFYYNAMGWNRQAPGKERELVARISRSGGSTYADSVKGRFTISRDNAKNTVYLQMNSLKPEDTAVYYCNADAYGTPEFTSYAVRYDYWGQGTQVTVSS”, the “polyreactivity (PSR sort gate)” value is “low polyreactivity”.

As for “QVQLVESGGGVVQAGGSLRLSCSASGRTLDKNVMGWYRQAPGKERELVAAINTGGRTYYADSVKGRFTISRDNAKNTVYLQMNSLKPEDTAVYYCAKEGHVNPRPTVGGDYWGQGTQVTVSS”, the “polyreactivity (PSR sort gate)” value was “low polyreactivity”. Consider “QVQLVESGGGVVQAGGSLRLSFAASGSTFPGNAMGWYRQAPGKERELVASISGGGDSTYYADSVKGRFTISRDNAKNTVYLQMNSLKPEDTADYYCAARSTRGHYTAYDYWGQGTQVTVSS”, for which the “polyreactivity (PSR sort gate)” value is on record as “low polyreactivity”. The value for “QVQLVESGGGVVQAGGSLRVSCAATGSIYYRSAMGWYRQAPGKERELVAAISVSGGSTYYADSVKGRFTISRDNAKITDYLQMNSLKPEDTAVYYCAAVVRYGYEYWGQGTQVTVSS” was “high polyreactivity”. Consider “QVQLVESGGGVVQAGGTLRLSCAASGSTFPKYAMGWYRQAPGKERELVAAISLSGVRTYYADSVKGRFTISRDNAKNTVYLQMTSLKPEDTAVYYCNAVFDRYPYRYDYWGQGTQVTVSS”, for which the “polyreactivity (PSR sort gate)” value is recorded as “high polyreactivity”. With “QVQLVESGGGVVQPGGSLSLSCAGSGITFWYYDLVWSRQAPGKERELVATITSSGSTYYADSVKGRFTISRDNAKNTVYLQKNSLKPEDTAVYFCAPQYGYSYYSGRYGYWGQGTQVTVSS” the entry was “high polyreactivity”.

Take “QVQLVESGGGVVQSGGSLRLSCAASGRTFNHYAMGWYRQAPGKERELVAGITISGGSTYYADSVKGRFTISRDNAKNTVYLQMNSLKPEDTAVYYCNAVYDYYRQSKWTMDYWGQGTQVTVSS”: the “polyreactivity (PSR sort gate)” value is recorded as “low polyreactivity”.

For “QVQLVESGGLIVQAGGSLRLSCAASRSTSRYSMGWYRQAPGKERELDAAITRSCGTTYYADSVKGRFTISRDNAKNSVYLQMNSLKPEDTAVYYCATSDRQVKDDYWGQGTQVTVSS”, the “polyreactivity (PSR sort gate)” value is “low polyreactivity”.

Consider “QVQLVESGGRIVQAGGSLRLRCAASGSTFRWYAMGRYRQAPGKERQLVASITWSGGGTYYADSVKGRFTISRDNAKNTVYLQMNSLKPEDTAVYYCNRRTWRYETRGDDYWGQGTQVTVSS”, for which the “polyreactivity (PSR sort gate)” value is “high polyreactivity”. “QVQLVESGGRIVQAGGSLRLSCAASGRIFWLNAMGRYRQAPGKEREFVASITYGSDSTYYADSVKGRFTISRDTATNTVYFQMNSLKPEDTAVYYCNREGWHYGPYGYWGQGTQVTVSS”: the “polyreactivity (PSR sort gate)” value is on record as “low polyreactivity”.

As to “QVQLVESGGRIVQAGRSLRLTCAASGRTFRNYAMGWYRQAPGKEREFVAAITSRSSRTYYADSVKGRFTISRDNEKNTVYLQMNSLIPEDTAVYYCARGSELGYYAWVYYWGQGTQVTVSS”, the “polyreactivity (PSR sort gate)” value is recorded as “high polyreactivity”.

On to “QVQLVESGGRLDQAGGSLRLSCAASGSILSTYAMGWYRQPPVKERELVASISSNAGSTYYADSVKGRFTISLDNAKNTVSLQMNSLKPEDTAVYYCNKVYGGGTYDYWGQGTQVTVSS”, for which the “polyreactivity (PSR sort gate)” value is “low polyreactivity”. Regarding “QVQLVESGGRLFQAGGSLRLSCAASRSIFSTYGKGWYRQPPGKERELVAAITSGVGRTNYADSVKGRFTISRDNAKNTVDLQMNSLKPEDTAVNYCAVRSLGTLDVYDLATEYDYWGQGTQVTVSS”, the “polyreactivity (PSR sort gate)” value is reported as “low polyreactivity”.

On to “QVQLVESGGRLLQAGGSLRLSCAASGIIFVYYDMGWYRQAPGKERELVAVITESGVSTYYADSVKGRFTISRDNAKKTVYLQMNSLKPEDTAVYYCDTSVDRGLGYWGQGTQVTVSS”, for which the “polyreactivity (PSR sort gate)” value is recorded as “low polyreactivity”.

In the case of “QVQLVESGGRLLQAGGSLRLSCAASGSTISHYAMGWYRQAPGKEWELVATITVTGVRTYYADSVKGRFTISRDNAKNTVYLELNSLKPEDTAVYYCAVRPSTRGAQAQPWMYYWGQGTQVTVSS”, the “polyreactivity (PSR sort gate)” value is “low polyreactivity”. In the case of “QVQLVESGGRLVQAGGILRLSCAASGRIFNRYAMGWSRQAPGKEREFVARITGSGGRTYYADSVKGRFTISRDNAKNTVYLQMNSLKPEDTAVYYCARDRGYQSGYDFWGQGSQVTVSS”, the “polyreactivity (PSR sort gate)” value was “high polyreactivity”. In the case of “QVQLVESGGRLVQAGGILRLSCPASGSTFKKYAMGWYRQTPGKERELVASINSSAGSTYYADSVKGRFTISRDNAKNTVYLQMNSLKPEDTAVYYCATCQKVYSGRYDYWGQGTQVTVSS”, the “polyreactivity (PSR sort gate)” value is recorded as “low polyreactivity”. The value for “QVQLVESGGRLVQAGGSLPLSCAASGFIFRYYAMGWYRQAPGKERELVAAIDYSGGSTNYADSVKGRFTISRDNAKNTVYLQMNSLKPEDTAVYYCNAEYTWHRGYDYWGQGTQVTVSS” was “low polyreactivity”; that for “QVQLVESGGRLVQAGGSLRISCAASGNTFVRYAMGWYRQAPGKQSELVASISTSGGSTYYADSVKGRFTISRDNAKNTVYLQMNSLKPQDTAVYYCAARLPRTRYWEDFWGQGTQVSVSS” was “high polyreactivity”; that for “QVQLVESGGRLVQAGGSLRLICAASGSICTHNAMGWYRQAPGKERELVADITSSVSSTYYADSVKGRFTISRDNSKNTVDLQMNSLKPEDTSVYYCAGGVGRGMYYWGQGTQVTVSS” was “low polyreactivity”. The value for “QVQLVESGGRLVQAGGSLRLICAASGSTFYPYAMGWYRQAPGKERELSTDADSVKGRFTISRDNAKNSVYLQMNSLKPEDTAVYYCAALHWRWYDYWGQGTQVTVSS” was “low polyreactivity”.

For the sequence “QVQLVESGGRLVQAGGSLRLRCAASGFIFLVNAMGWYRQARGKESELVAAITTSGASTYYADSVKGRFTISRDNAKNTVYLQMNSLKPEDTAVYYCAAGSYARPEYGYWGQGTQVTVSS”, the “polyreactivity (PSR sort gate)” value is reported as “low polyreactivity”. “QVQLVESGGRLVQAGGSLRLSCAASGFIYTPNTMGWYRQAHRKERELVAAITTNGGRTYYADSVKGRFTISRDNAKNTVYFQMNSVKPEDTAVYYCAARYVSSFGLHAQVWSYYYWGLGTQVTVSS”: the “polyreactivity (PSR sort gate)” value was “high polyreactivity”. With “QVQLVESGGRLVQAGGSLRLSCAASGFTFARYAMGWYRQAPGKERELVARISSDGGGTDYADSVKGRFTISRDNAKNTVYLQMNSLKPEDTAVYYCYADPYSRFWGPDYGYWGQGTQVTVSS”, the “polyreactivity (PSR sort gate)” value is “low polyreactivity”. Regarding “QVQLVESGGRLVQAGGSLRLSCAASGFTFPVYAMGWYRQAPGKERELVAVIRLTGGRTYYADSVKGRFTISRDNAKNTVYLQMNSLKPVDTAVYYCAAGSRSGYGYWGQGTQVTVSS”, the “polyreactivity (PSR sort gate)” value is “high polyreactivity”. For “QVQLVESGGRLVQAGGSLRLSCAASGFTFRYYAMGWYRQAPGKERELVAAITWSGGRTYYADSVKGRFTISRDNAKNTVFLQMNSLKPEDTAVYSSNTPSLWYGEDYWGHGTQVTVSS”, the “polyreactivity (PSR sort gate)” value is listed as “high polyreactivity”.

For the sequence “QVQLVESGGRLVQAGGSLRLSCAASGGIFTAYTMGWYRQAPGKESELVAVISSGGGRTYYADSVKGRFTISRDNAKNTVYLQMNSLKPEDTAVYYCNARVYVSANKYDYWGQGTQVTVSS”, the “polyreactivity (PSR sort gate)” value is on record as “high polyreactivity”. Consider “QVQLVESGGRLVQAGGSLRLSCAASGHIFFYYTMGRYRPGPGKERELVAGITIGGSTNYADSVKGRFTISRDNAKNTVYLLMNSLKPADTAVYYCNVVKYVYISSYWEYYYWGQGAQVTVSS”, for which the “polyreactivity (PSR sort gate)” value was “low polyreactivity”. With “QVQLVESGGRLVQAGGSLRLSCAASGITQGYYAMGWYRQAPGKERELVAAISYRGGNTYYADSVKGRFTISRDNAKNTVYLQMNSLKPEDTAVYYCNADLGYESGWWSKYDYWGQGTQVTVSS” the entry was “low polyreactivity”. With “QVQLVESGGRLVQAGGSLRLSCAASGLIFNDNAMGWYRQAPGKERELVAAISWGGGTTYYADSVKGRFSNSRDNAKYTVFLQMNSLKPEDTAVYYCAAEEAMFYDFYYVLLDYWGQGTQVTVSS” the entry was “high polyreactivity”; with “QVQLVESGGRLVQAGGSLRLSCAASGLIFRRNAMGWYRQAPGKERELVSAISRSSGSTYYADSVKGRFTISRDYAKNSVYFHMNSLKPDDTAVYYCDAGYRAGPGYGMYSWGQGTQVTVSS”, “high polyreactivity”; with “QVQLVESGGRLVQAGGSLRLSCAASGLIFYTYAMGWYRKAPGKERELVADINRSDGSTYYADSVKGRFTISRDNAKNTVYLQMNSLKPEDTAVYYCAVVGPYYSRFGGRYYYWGQGTQVTVSS”, “low polyreactivity”. As to “QVQLVESGGRLVQAGGSLRLSCAASGLIIDVNTMGWYRQAPGKDRELVAAITGSGGRTYYADSVKGRFTISRDNAKNTVYLQMNSLKPEDSAVYYCNADTSYVGFDFWGQGTQVTVSS”, the “polyreactivity (PSR sort gate)” value is reported as “low polyreactivity”.

In the case of “QVQLVESGGRLVQAGGSLRLSCAASGLILLPNTMGWYRQAPGKESEMVAAISYSGGGTYYADSVKARFTISRDNAKNSVYLQMNSLKPEDTAVYYCAAYVKRESAPYGYWGQGTQVTVSS”, the “polyreactivity (PSR sort gate)” value is listed as “low polyreactivity”.

Take “QVQLVESGGRLVQAGGSLRLSCAASGRIFAFYAMGWYRQAPGKERELVAAITSGGSTKYADSVKGRFTISRDNAKNTVYLQMNSLKPEDTAVYYCAAVESGYGSKRFYYWGQGTQVTVSS”: the “polyreactivity (PSR sort gate)” value is recorded as “high polyreactivity”. For the sequence “QVQLVESGGRLVQAGGSLRLSCAASGRIFGDYAMGRYRQAPGKERDLVAAISWSDGSTYYADSVKGRFTISRDNAKNTVYLQMNSLTPEDTAVYYCPAYGWGYRYVDVVVSDFYYWGQGTQVTVSS”, the “polyreactivity (PSR sort gate)” value is “low polyreactivity”.

“QVQLVESGGRLVQAGGSLRLSCAASGRIFTQYAMGWYRQSPGKERELVAAINASDGSTYADSVKGRFTSSRDNAQNTVYLQMKRLKPADTAVYYCNVTGGTYDFTRWSEFDHWGQGTQVTVSS”: the “polyreactivity (PSR sort gate)” value is listed as “low polyreactivity”. With “QVQLVESGGRLVQAGGSLRLSCAASGRIIGVNAMGWYRQAPGKERELVATITSGGSTYADSVKGRFTISRDNAKNTVYLQMNSLKPEDTAVYFCNALIYKRVTRYPYVRLMDYWGQGTQVTVSS”, the “polyreactivity (PSR sort gate)” value was “high polyreactivity”. The value for “QVQLVESGGRLVQAGGSLRLSCAASGRILYVNNMGWYRQAPGKERELVAGITSRVGSTYYADSVKGRFTISRDNAKNTVYLQMNSLKPEDSAVYYCNARSTWRHRRDQVDFDYWGQGTQVSVSS” was “low polyreactivity”.
